Where two headings read alike, the source gives them in different places.
Tests used:
[1] = target: Poly-His tagged murine FAM72A (mouse) (UniProt Q8BFZ8); assay: BLI
[2] = target: Poly-His tagged murine FAM72A (mouse) (UniProt Q8BFZ8); assay: BLI; remark: listed apart in the source

Chain of UniProt Q8BFZ8 (Q8BFZ8 whole entry): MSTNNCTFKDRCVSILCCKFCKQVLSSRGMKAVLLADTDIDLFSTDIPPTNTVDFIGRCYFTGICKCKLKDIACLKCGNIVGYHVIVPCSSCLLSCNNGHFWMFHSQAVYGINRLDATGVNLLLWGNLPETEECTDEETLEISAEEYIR

Kd [1] | koff [1] | Kd [2] | kon [1] | Substance
1.9 nM | 0.037 s⁻¹ | 188 nM | – | synthetic polypeptide containing the first 25 aa of mUNG2, C-terminal biotin
600 nM | 0.023 s⁻¹ | – | 43000 M⁻¹ s⁻¹ | murine uracil-DNA glycosylase, nuclear form (mUNG2), untagged (enzyme)

— paper PMC10996437
